We go through one substance from US20040258659A1.

The target of the experiment is CCR5 (UniProt P51681). In words: cell-based or functional assay.
Sequence of CCR5 (P51681 whole entry): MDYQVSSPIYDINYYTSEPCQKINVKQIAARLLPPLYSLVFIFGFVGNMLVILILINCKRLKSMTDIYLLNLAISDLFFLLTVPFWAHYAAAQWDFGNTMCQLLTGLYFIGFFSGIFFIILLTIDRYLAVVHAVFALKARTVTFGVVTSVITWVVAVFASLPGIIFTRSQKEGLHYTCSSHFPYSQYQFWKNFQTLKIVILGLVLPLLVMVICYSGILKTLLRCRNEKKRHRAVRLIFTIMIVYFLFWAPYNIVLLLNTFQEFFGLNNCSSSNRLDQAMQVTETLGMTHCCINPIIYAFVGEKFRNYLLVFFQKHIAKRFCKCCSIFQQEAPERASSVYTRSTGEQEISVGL

“aminooxypentane(AOP)-RANTES (from UniProt P13501 24-91) (ligand)” had an IC50, R5-tropic envelope-mediated cell fusion assay of 3 nM.
